The values below come from the supplement of paper PMC5998384.

For data set [1], the system named is HeLa Kyoto. Nature of the data set: thermal stability score vs G1/S (z-score of summed log2 fold changes over temperatures); higher = more thermally stable than in G1/S.
Data set [2] deals with HeLa Kyoto. Kind of data set: melting temperature (median over replicates), in situ; higher = more thermally stable.
Data set [3] has as its system HeLa Kyoto. Kind of data set: solubility in G1/S (NP-40 vs SDS abundance) (log2 ratio); higher = more soluble. As to conditions: cell cycle stage: G1/S.
Data set [4] deals with HeLa Kyoto. Nature of the data set: solubility change mitosis vs G1/S (difference of NP-40 vs SDS log2 ratios) (log2 ratio difference); higher = more soluble in mitosis.
Where [5] appears, read: cell cycle stage: early G1 (4.5 h after nocodazole release).
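Throughout, for melting temperature (median over replicates), in situ: HeLa Kyoto cells synchronized by double thymidine or nocodazole block, proteins quantified by TMT10plex mass spectrometry, three independent biological replicates.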
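Throughout, for solubility change mitosis vs G1/S (difference of NP-40 vs SDS log2 ratios): synchronized HeLa Kyoto cells (double thymidine block for G1/S, nocodazole release for mitosis), protein amounts in NP-40 versus SDS lysates quantified by mass spectrometry, three biological replicates.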
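Throughout, for solubility in G1/S (NP-40 vs SDS abundance): HeLa Kyoto cells arrested at G1/S by double thymidine block, proteins quantified by TMT10plex mass spectrometry in mild NP-40 versus SDS extracts, three biological replicates.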
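Throughout, for thermal stability score vs G1/S (z-score of summed log2 fold changes over temperatures): synchronized HeLa Kyoto cells, proteins quantified by TMT10plex mass spectrometry, three biological replicates, mitosis taken 0.5 h after nocodazole release, G1/S directly after double thymidine block.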

Consider “MEEEGLECPNSSSEKRYFPESLDSSDGDEEEVLACEDLELNPFDGLPYSSRYYKLLKEREDLPIWKEKYSFMENLLQNQIVIVSGDAKCGKSAQVPQWCAEYCLSIHYQHGGVICTQVHKQTVVQLALRVADEMDVNIGHEVGYVIPFENCCTNETILRYCTDDMLQREMMSNPFLGSYGVIILDDIHERSIATDVLLGLLKDVLLARPELKLIINSSPHLISKLNSYYGNVPVIEVKNKHPVEVVYLSEAQKDSFESILRLIFEIHHSGEKGDIVVFLACEQDIEKVCETVYQGSNLNPDLGELVVVPLYPKEKCSLFKPLDETEKRCQVYQRRVVLTTSSGEFLIWSNSVRFVIDVGVERRKVYNPRIRANSLVMQPISQSQAEIRKQILGSSSSGKFFCLYTEEFASKDMTPLKPAEMQEANLTSMVLFMKRIDIAGLGHCDFMNRPAPESLMQALEDLDYLAALDNDGNLSEFGIIMSEFPLDPQLSKSILASCEFDCVDEVLTIAAMVTAPNCFSHVPHGAEEAALTCWKTFLHPEGDHFTLISIYKAYQDTTLNSSSEYCVEKWCRDYFLNCSALRMADVIRAELLEIIKRIELPYAEPAFGSKENTLNIKKALLSGYFMQIARDVDGSGNYLMLTHKQVAQLHPLSGYSITKKMPEWVLFHKFSISENNYIRITSEISPELFMQLVPQYYFSNLPPSESKDILQQVVDHLSPVSTMNKEQQMCETCPETEQRCTLQ [DHX32]”, for which the thermal stability score in data set [1] (setting [5]) was -0.0722; in data set [1] (cell cycle stage: mitosis) it was 0.258. The figures for the melting temperature in data set [2] (cell cycle stage: G1/S) and in data set [2] (cell cycle stage: mitosis) were 49.4 °C and 50 °C, respectively. Moreover, the “solubility in G1/S (log2)” value in data set [3] was -0.155. Also, the “solubility change mitosis (log2)” value in data set [4] was -0.152.
Take “MTDAAVSFAKDFLAGGVAAAISKTAVAPIERVKLLLQVQHASKQITADKQYKGIIDCVVRIPKEQGVLSFWRGNLANVIRYFPTQALNFAFKDKYKQIFLGGVDKRTQFWLYFAGNLASGGAAGATSLCFVYPLDFARTRLAADVGKAGAEREFRGLGDCLVKIYKSDGIKGLYQGFNVSVQGIIIYRAAYFGIYDTAKGMLPDPKNTHIVISWMIAQTVTAVAGLTSYPFDTVRRRMMMQSGRKGTDIMYTGTLDCWRKIARDEGGKAFFKGAWSNVLRGMGGAFVLVLYDEIKKYT [SLC25A5]”: the thermal stability score was -2.25 in data set [1] (setting [5]) and -3.52 in data set [1] (cell cycle stage: mitosis). Further, the values for the melting temperature in data set [2] (cell cycle stage: G1/S) and in data set [2] (cell cycle stage: mitosis) were 56.9 °C and 55.9 °C, respectively. In data set [3], the “solubility in G1/S (log2)” value is -0.308. The “solubility change mitosis (log2)” value in data set [4] is -0.12.
With “MERKVLALQARKKRTKAKKDKAQRKSETQHRGSAPHSESDLPEQEEEILGSDDDEQEDPNDYCKGGYHLVKIGDLFNGRYHVIRKLGWGHFSTVWLSWDIQGKKFVAMKVVKSAEHYTETALDEIRLLKSVRNSDPNDPNREMVVQLLDDFKISGVNGTHICMVFEVLGHHLLKWIIKSNYQGLPLPCVKKIIQQVLQGLDYLHTKCRIIHTDIKPENILLSVNEQYIRRLAAEATEWQRSGAPPPSGSAVSTAPQPKPADKMSKNKKKKLKKKQKRQAELLEKRMQEIEEMEKESGPGQKRPNKQEESESPVERPLKENPPNKMTQEKLEESSTIGQDQTLMERDTEGGAAEINCNGVIEVINYTQNSNNETLRHKEDLHNANDCDVQNLNQESSFLSSQNGDSSTSQETDSCTPITSEVSDTMVCQSSSTVGQSFSEQHISQLQESIRAEIPCEDEQEQEHNGPLDNKGKSTAGNFLVNPLEPKNAEKLKVKIADLGNACWVHKHFTEDIQTRQYRSLEVLIGSGYNTPADIWSTACMAFELATGDYLFEPHSGEEYTRDEDHIALIIELLGKVPRKLIVAGKYSKEFFTKKGDLKHITKLKPWGLFEVLVEKYEWSQEEAAGFTDFLLPMLELIPEKRATAAECLRHPWLNS [SRPK1]”, the values for the thermal stability score in data set [1] (setting [5]) and in data set [1] (cell cycle stage: mitosis) were 0.23 and -0.71, respectively. Besides, the melting temperature in data set [2] (cell cycle stage: G1/S) came out at 51.7 °C; in data set [2] (cell cycle stage: mitosis) it was 51.3 °C. Further, the “solubility in G1/S (log2)” value in data set [3] was -0.411. In data set [4], the “solubility change mitosis (log2)” value stood at 0.114.
